Test results from patent US20200055939A1 (Genentech, published 2020).
Substitutions are numbered along the chain they refer to.

T1: MICA*008 on MEL-JUSO cells (human, UniProt Q29983 24-317)
T1 chain: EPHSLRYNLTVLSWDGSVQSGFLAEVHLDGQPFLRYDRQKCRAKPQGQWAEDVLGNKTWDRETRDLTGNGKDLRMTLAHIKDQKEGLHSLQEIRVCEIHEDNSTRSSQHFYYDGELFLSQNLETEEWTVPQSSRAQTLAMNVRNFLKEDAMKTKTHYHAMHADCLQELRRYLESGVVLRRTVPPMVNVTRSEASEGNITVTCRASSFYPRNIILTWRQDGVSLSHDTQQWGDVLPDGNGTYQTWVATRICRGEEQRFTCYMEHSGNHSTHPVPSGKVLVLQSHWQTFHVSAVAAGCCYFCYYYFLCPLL

T2: huMICA*008 alpha 3-his (human)
T2 construct: whole construct entry: GS, alpha 3 domain (Thr204-Ser297), GNS, His8; also the construct of the FPOP experiment; also called MICA008.His; MICA*008 alpha3 construct
T2 chain: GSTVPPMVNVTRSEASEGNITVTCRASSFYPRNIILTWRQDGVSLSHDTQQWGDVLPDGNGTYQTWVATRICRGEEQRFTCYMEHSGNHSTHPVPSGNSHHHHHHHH

T3: huMICA*004 alpha 3-his (human)
T3 construct: whole construct entry: GS, alpha 3 domain, GNS, His8; also called MICA004.His; MICA*004 alpha3 construct
T3 chain: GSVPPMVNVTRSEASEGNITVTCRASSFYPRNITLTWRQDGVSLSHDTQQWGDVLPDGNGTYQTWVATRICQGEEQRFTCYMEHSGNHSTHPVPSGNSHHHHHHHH

T4: huMICA*002 alpha 3-his (human)
T4 construct: whole construct entry: GS, alpha 3 domain, GNS, His8; also called MICA002.His; MICA*002 alpha3 construct
T4 chain: T2 chain with S28G, R32W, I35T, T37S, R73Q

T5: huMICB*005 alpha 3-his (human)
T5 construct: whole construct entry: GS, alpha 3 domain, GNS, His8; also called MICB005.His; MICB*005 alpha3 construct
T5 chain: T2 chain with R12C, A15V, I35T, D48N, C72R, R73Q, S90G

B1: 15F11 (antibody, V domains shown)
VH: EIQLQQSGPELVKPGASVRVSCKPSGYAFTSNNIYWVKQSRRKSLEWIGYIDPYIGRIIYNQQFKDKATLTVDKSSSTAYMHLNSLTSEDSAVYYCSRSGERSNFDYWGQGTTLTVSS
VL: EIVLTQSPTAMAASPGEKITITCSASSSISSNYLHWYQQKPGFSPKLLIYRTSNLASGVPARFSGSGSGTSYSLTIGPMEAEDVATYYCQQGGSLPLTFGAGTKVEIK
notes: mouse variable domains
B2: 1D5 (m IgG2a, CHO) (antibody, V domains shown)
VH: EIQLQQSGPELVKPGASVKVSCKASGYAFTSQNIYWVKQSHGKSLEWIGYIEPYNVVPMYNPKFKGKATLTVDKSSSSAYIHLNSLTSEDSAIYYCARSGSSNFDYWGQGTTLTVSS
VL: B1 VL with V3I, A10T, N32H, P41S, P78T, G93S
B3: 15F11 (m IgG2a, CHO) (antibody, V domains shown)
VH: B1 VH
VL: B1 VL
B4: 6E1 (m IgG2a, CHO) (antibody, V domains shown)
VH: QGQMQQSGAELVKPGASVKLSCKTSGFTFSDNYISWLKQKPGQSLEWIAWIYAGTGGSSYNQKFRDKAQLTVDTSSRTAYMQLSSLTTEDSAIYYCARHDYYGTSGAWFAYWGRGTLVTVSA
VL: DVLMTQTPLSLPVSLGDQASISCRSSQHIVHSNENTYLEWYLQKPGQSPKLLIYKVSNRFSGVPDRFSGSGSGTDFTLKISRVEAEDLGVYYCFQGSHVPWTFGGGTKVEIK
B5: 13A9 (antibody, V domains shown)
VH: QVQLQQSGAELVRPGTSVKVSCKASGYAFTNYLIEWVKQRPGQGLEWIGAINPGSGATNYNEKFKDKARLTADKSSNTAYLQFSSLTSDDSAVYFCARFLGNYFDNWGQGATLTVSS
VL: DIQMTQSPASLSASVGETVTITCRASGNIHSYLAWYQQKQGKSPQLLVYYAETLADGVPSRFSGRGSGTQYSLKINSLQPEDFGSYFCQQFWTTPYTFGGGTKVEIK
notes: mouse variable domains
B6: 13A9 (m IgG2a, CHO) (antibody, V domains shown)
VH: B5 VH
VL: B5 VL
B7: 1D5v1 (antibody, IgG1, V domains shown)
VH: EIQLVQSGAEVKKPGASVKVSCKASGYAFTSQNIYWVRQAPGQGLEWIGYIEPYNVVPMYNPKFKGRATLTVDKSTSTAYMELRSLRSDDTAVYYCARSGSSNFDYWGQGTLVTVSS
VL: EIVLTQSPDFQSVTPKEKVTITCSASSSISSHYLHWYQQKPDQSPKLLIYRTSNLASGVPSRFSGSGSGTDYTLTINSLEAEDAATYYCQQGSSLPLTFGQGTKVEIK
notes: humanized variant of 1D5; also called lD5v1
B8: 1D5v11 (antibody, IgG1, V domains shown)
VH: B7 VH with M81L, R84S, D89E
VL: DIQLTQSPSSLSASVGDRVTITCSASSSISSHYLHWYQQKPGKSPKLLIYRTSNLASGVPSRFSGSGSGTDYTLTISSLQPEDFATYYCQQGSSLPLTFGQGTKVEIK
notes: humanized variant of 1D5
B9: 1D5v4 (antibody, IgG1, V domains shown)
VH: B7 VH with I2V, A68V, L70I, V72R, K74T, M81L, R84S, D89E
VL: B7 VL
notes: humanized variant of 1D5
B10: 1D5v2 (antibody, IgG1, V domains shown)
VH: B7 VH with I2V, I48M, A68V, L70M, V72T, K74T
VL: B7 VL
notes: humanized variant of 1D5
B11: 1D5v7 (antibody, IgG1, V domains shown)
VH: B7 VH with M81L, R84S, D89E
VL: B7 VL with Y50K, Y72F
notes: humanized variant of 1D5
B12: 1D5v5 (antibody, IgG1, V domains shown)
VH: B7 VH
VL: B7 VL with Y50K, Y72F
notes: humanized variant of 1D5
B13: 1D5v8 (antibody, IgG1, V domains shown)
VH: B7 VH with I2V, A68V, L70I, V72R, K74T, M81L, R84S, D89E
VL: B7 VL with Y50K, Y72F
notes: humanized variant of 1D5
B14: 1D5v6 (antibody, IgG1, V domains shown)
VH: B7 VH with I2V, I48M, A68V, L70M, V72T, K74T
VL: B7 VL with Y50K, Y72F
notes: humanized variant of 1D5
B15: 1D5v3 (antibody, IgG1, V domains shown)
VH: B7 VH with M81L, R84S, D89E
VL: B7 VL
notes: humanized variant of 1D5
B16: 1D5v14 (antibody, IgG1, V domains shown)
VH: B7 VH with I2V, I48M, A68V, L70M, V72T, K74T
VL: B8 VL with L4M, S44A, Y72F
notes: humanized variant of 1D5; also called 1D5v14 second data point

biological target: MICB*005 on HCC1534 cells (human); experiment: cell-based or functional assay
Wherever % Inhibition is given: test concentration or dose not given here.

Row | Binder | % Inhibition [%]
1 | B1 | 43
2 | B2 | 76
3 | B3 | 57
4 | B4 | 47
5 | B5 | 61
6 | B6 | 60
7 | B7 | 41
8 | B8 | 36
9 | B9 | 34
10 | B10 | 26
11 | B11 | 42
12 | B12 | 32
13 | B13 | 35
14 | B14 | 37
15 | B15 | 38

Biological target: T1, MICA*008 on MEL-JUSO cells
Experiment: cell-based or functional assay

Row | Binder | % Inhibition [%]
16 | B1 | 50
17 | B2 | 74
18 | B3 | 69
19 | B4 | 36
20 | B5 | -7
21 | B6 | 29
22 | B7 | 52
23 | B8 | 56
24 | B9 | 43
25 | B10 | 33
26 | B11 | 51
27 | B12 | 36
28 | B13 | 52
29 | B14 | 51
30 | B15 | 50

biological target: MICA*004 on HCC1534 cells (human, UniProt Q29983 24-383); experiment: cell-based or functional assay

Row | Binder | % Inhibition [%]
31 | B1 | 54
32 | B2 | 59
33 | B3 | 60
34 | B4 | 40
35 | B5 | 21
36 | B6 | 34
37 | B7 | 54
38 | B8 | 52
39 | B9 | 46
40 | B10 | 38
41 | B11 | 48
42 | B12 | 39
43 | B13 | 42
44 | B14 | 47
45 | B15 | 56

Biological target: T2, huMICA*008 alpha 3-his
Experiment: SPR, Biacore 8K, antibody on Protein A chip

Row | Binder | Kd [nM]
46 | B1 | 0.79
47 | B5 | 2.35
48 | B7 | 0.96
49 | B8 | 0.78
50 | B9 | 7.45
51 | B16 | 1.16
52 | B10 | 0.89
53 | B11 | 1.7
54 | B12 | 1.64
55 | B13 | 9.08
56 | B14 | 2.61
57 | B15 | 0.85

Biological target: T3, huMICA*004 alpha 3-his
Experiment: SPR, Biacore 8K, antibody on Protein A chip

Row | Binder | Kd [nM]
58 | B1 | 1.31
59 | B5 | 6.77
60 | B7 | 1.17
61 | B8 | 0.83
62 | B9 | 6.2
63 | B16 | 1.23
64 | B10 | 1.34
65 | B11 | 1.67
66 | B12 | 2.13
67 | B13 | 9.41
68 | B14 | 2.91
69 | B15 | 0.96

Biological target: T4, huMICA*002 alpha 3-his
Experiment: SPR, Biacore 8K, antibody on Protein A chip

Row | Binder | Kd [nM]
70 | B1 | 2.21
71 | B5 | 4.82
72 | B7 | 1.4
73 | B8 | 1.09
74 | B9 | 6.63
75 | B16 | 1.62
76 | B10 | 1.69
77 | B11 | 2.21
78 | B12 | 2.59
79 | B13 | 11.3
80 | B14 | 3.69
81 | B15 | 1.21

Biological target: T5, huMICB*005 alpha 3-his
Experiment: SPR, Biacore 8K, antibody on Protein A chip

Row | Binder | Kd [nM]
82 | B1 | 2.28
83 | B5 | 2.35
84 | B7 | 1.96
85 | B8 | 1.38
86 | B9 | 16.2
87 | B16 | 2.14
88 | B10 | 2.69
89 | B11 | 3.31
90 | B12 | 3.99
91 | B13 | 18.8
92 | B14 | 6.15
93 | B15 | 1.78
